From patent publication US5580760, “FUSE binding protein and cDNA therefor” (The United States of America as represented by the …)

How the values were obtained:
[1] = molecular target: FBP full length (CMV expression) (Homo sapiens) (UniProt Q96AE4); experiment: cell_activity; details: CAT activation vs empty vector, U937 cells
[2] = molecular target: GST-FBP 278-511 insertion mutant 9 (Homo sapiens, UniProt Q96AE4 SEQ:278-511, insertion RGSG with deletion of P after 475); experiment: EMSA; details: tags: N-terminal GST; C-terminal KEIEQKVQE; label: 5'-32P
[3] = molecular target: GST-FBP 278-511 insertion mutant 7 (Homo sapiens, UniProt Q96AE4 SEQ:278-511, insertion RIR after 373); experiment: EMSA; details: tags: N-terminal GST; C-terminal KEIEQKVQE; label: 5'-32P
[4] = molecular target: GST-FBP 278-372 (Homo sapiens, UniProt Q96AE4 SEQ:278-372); experiment: EMSA; details: tags: N-terminal GST; label: 5'-32P
[5] = molecular target: GST-FBP 278-511 insertion mutant 1 (Homo sapiens, UniProt Q96AE4 SEQ:278-511, insertion RIR between GST and FBP); experiment: EMSA; details: tags: N-terminal GST; C-terminal KEIEQKVQE; label: 5'-32P
[6] = molecular target: GST-FBP 278-511 insertion mutant 4 (Homo sapiens, UniProt Q96AE4 SEQ:278-511, Q333 replaced by PRIRE); experiment: EMSA; details: tags: N-terminal GST; C-terminal KEIEQKVQE; label: 5'-32P
[7] = molecular target: GST-FBP 278-511 insertion mutant 2 (Homo sapiens, UniProt Q96AE4 SEQ:278-511, insertion IGSRIR after M297); experiment: EMSA; details: tags: N-terminal GST; C-terminal KEIEQKVQE; label: 5'-32P
[8] = molecular target: GST-FBP 278-511 insertion mutant 8 (Homo sapiens, UniProt Q96AE4 SEQ:278-511, insertion RDPA with deletion of QS after 404); experiment: EMSA; details: tags: N-terminal GST; C-terminal KEIEQKVQE; label: 5'-32P
[9] = molecular target: GST-FBP 278-474 (Homo sapiens, UniProt Q96AE4 SEQ:278-474); experiment: EMSA; details: tags: N-terminal GST; label: 5'-32P
[10] = molecular target: GST-FBP 278-511 insertion mutant 3 (Homo sapiens, UniProt Q96AE4 SEQ:278-511, insertion IRIR after M297); experiment: EMSA; details: tags: N-terminal GST; C-terminal KEIEQKVQE; label: 5'-32P
[11] = molecular target: GST-FBP 278-511 insertion mutant 5 (Homo sapiens, UniProt Q96AE4 SEQ:278-511, insertion GIP after 336); experiment: EMSA; details: tags: N-terminal GST; C-terminal KEIEQKVQE; label: 5'-32P
[12] = molecular target: GST-FBP 298-511 (Homo sapiens, UniProt Q96AE4 SEQ:298-511); experiment: EMSA; details: tags: N-terminal GST; C-terminal KEIEQKVQE; label: 5'-32P
[13] = molecular target: GST alone (UniProt P08515 P08515:1-218); experiment: EMSA; GST control; details: tags: pGEX-2T without insert; label: 5'-32P
Experimental: Purified recombinant proteins were incubated with double stranded, ^32P labeled, oligonucleotide (Probe) in the presence or absence of the indicated quantity of unlabeled, double stranded oligonucleotide as competitor, and subjected to EMSA. (M. Fried and D. M. Crothers, *Nucleic Acids Res.* 9, 6505 (1981)).
DNA binding assays were performed with an equivalent amount of GST-FBP or GST alone incubated in 25 mM Tris, 200 mM Glycine, 1 mM EDTA, 0.5 mg/ml BSA, 0.1% Tween20, 10% glycerol, 100 µg/ml poly(dI:dC), and 0.2 ng of labeled probe. The probe was prepared by annealing two complementary synthetic oligonucleotides and 5' end labeling with T_4 polynucleotide kinase in the presence of γ-^32P-ATP. The top strand of the FUSE oligonucleotide was 5'-[…]-3'(SEQ ID NO: 11). The top strand of Mut A was 5'-GATCACAActacgtgctaggacgccGAATATAG-3' (SEQ ID NO: 12) (lower case indicates changes from FUSE oligomer sequence). The top strand of CRE was 5'-[…]-3' (SEQ ID NO: 13). The top strand of CTE was 5'-[…]-3' (SEQ ID NO: 14). Reaction mixtures were incubated 30 minutes at room temperature and protein-DNA complexes resolved by electrophoresis on a 4.2% acrylamide gel in 25 mM Tris, 200 mM Glycine, 1 mM EDTA buffer.

[14] = molecular target: GST-FBP 278-511 (Homo sapiens, UniProt Q96AE4 SEQ:278-511); experiment: EMSA; same specificity as full length (FIG. 6C); details: tags: N-terminal GST (pGEX-1); C-terminal KEIEQKVQE; label: 5'-32P

| Molecule | activity [1] [fold] | binding result [2] | binding result [3] | binding result [4] | binding result [5] | binding result [6] | binding result [7] | binding result [8] | binding result [9] | binding result [10] | binding result [11] | binding result [12] | binding result [13] | binding result [14] |
| --- | --- | --- | --- | --- | --- | --- | --- | --- | --- | --- | --- | --- | --- | --- |
| myc-CAT reporter with FUSE | 5 |  |  |  |  |  |  |  |  |  |  |  |  |  |
| FUSE (dsDNA) DNA 1: GATCACAAAATAAAAAATCCCGAGGGAATATAG DNA 2: CTATATTCCCTCGGGATTTTTTATTTTGTGATC |  | binds | binds | no binding | binds | no binding | no binding | no binding | binds | no binding | no binding | no binding | no binding | binds |
